Data on 13 substances can be found in paper doi:10.1101/2021.03.12.434960.

The assay concerns the target taxol-stabilised microtubules of porcine brain tubulin (pig (porcine brain)) (UniProt P02550). Briefly: single-molecule TIRF microscopy on surface-bound microtubules.

Chain of K420C (human KIF5C aa 1-416, C-terminal mScarlet-StrepII) (O60282 1-416, stated change not applied): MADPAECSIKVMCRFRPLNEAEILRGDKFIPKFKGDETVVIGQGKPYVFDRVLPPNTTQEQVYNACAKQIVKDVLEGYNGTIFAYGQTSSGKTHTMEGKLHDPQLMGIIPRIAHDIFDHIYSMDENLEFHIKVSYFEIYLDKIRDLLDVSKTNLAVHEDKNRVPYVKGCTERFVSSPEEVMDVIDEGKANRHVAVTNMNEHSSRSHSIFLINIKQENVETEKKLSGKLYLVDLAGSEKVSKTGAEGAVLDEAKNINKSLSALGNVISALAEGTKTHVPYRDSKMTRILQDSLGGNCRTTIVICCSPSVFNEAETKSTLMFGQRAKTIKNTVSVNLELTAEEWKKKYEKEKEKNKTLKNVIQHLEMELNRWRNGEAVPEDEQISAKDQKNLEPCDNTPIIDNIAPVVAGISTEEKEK
Chain of K420A (human KIF5A aa 1-416, C-terminal mScarlet-StrepII) (Q12840 1-416, stated change not applied): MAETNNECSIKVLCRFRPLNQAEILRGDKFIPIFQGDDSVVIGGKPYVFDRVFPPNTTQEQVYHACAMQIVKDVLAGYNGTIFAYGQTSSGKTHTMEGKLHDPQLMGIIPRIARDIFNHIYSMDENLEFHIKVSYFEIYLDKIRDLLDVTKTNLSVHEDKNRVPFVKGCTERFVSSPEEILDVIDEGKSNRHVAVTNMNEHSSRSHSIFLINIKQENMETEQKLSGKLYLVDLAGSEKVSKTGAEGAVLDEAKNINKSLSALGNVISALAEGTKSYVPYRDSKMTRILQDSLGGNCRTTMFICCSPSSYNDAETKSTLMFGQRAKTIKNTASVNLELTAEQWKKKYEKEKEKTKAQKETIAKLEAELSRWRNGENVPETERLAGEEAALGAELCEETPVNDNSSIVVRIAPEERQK
Chain of full-length human KIF5A, C-terminal mScarlet-StrepII (Q12840 whole entry): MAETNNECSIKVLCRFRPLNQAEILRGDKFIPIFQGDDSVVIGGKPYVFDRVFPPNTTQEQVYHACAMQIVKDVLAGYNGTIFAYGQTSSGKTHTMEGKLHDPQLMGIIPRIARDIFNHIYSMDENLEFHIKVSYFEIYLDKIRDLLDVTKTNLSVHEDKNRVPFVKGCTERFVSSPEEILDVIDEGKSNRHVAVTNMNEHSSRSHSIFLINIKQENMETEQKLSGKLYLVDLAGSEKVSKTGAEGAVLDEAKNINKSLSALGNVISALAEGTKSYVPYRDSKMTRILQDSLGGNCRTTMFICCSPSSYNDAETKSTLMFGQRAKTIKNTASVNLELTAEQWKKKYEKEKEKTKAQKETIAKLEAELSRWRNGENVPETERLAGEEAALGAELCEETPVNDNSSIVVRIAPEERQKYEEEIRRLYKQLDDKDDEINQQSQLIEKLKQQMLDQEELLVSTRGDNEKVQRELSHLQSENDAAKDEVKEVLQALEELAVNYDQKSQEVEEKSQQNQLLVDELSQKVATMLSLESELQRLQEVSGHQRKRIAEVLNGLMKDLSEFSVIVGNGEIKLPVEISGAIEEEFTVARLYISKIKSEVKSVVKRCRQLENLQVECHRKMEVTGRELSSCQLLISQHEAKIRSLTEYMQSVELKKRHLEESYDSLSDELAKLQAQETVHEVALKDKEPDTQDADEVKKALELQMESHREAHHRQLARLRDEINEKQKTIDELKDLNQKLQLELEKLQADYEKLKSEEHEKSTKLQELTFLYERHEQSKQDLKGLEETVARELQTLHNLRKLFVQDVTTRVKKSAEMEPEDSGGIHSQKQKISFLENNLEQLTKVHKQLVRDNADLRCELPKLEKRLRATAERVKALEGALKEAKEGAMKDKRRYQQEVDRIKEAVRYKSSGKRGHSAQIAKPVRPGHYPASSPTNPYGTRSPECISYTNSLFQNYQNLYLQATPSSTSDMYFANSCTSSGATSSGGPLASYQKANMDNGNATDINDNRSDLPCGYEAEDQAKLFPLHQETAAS
Chain of full-length human KIF5C, C-terminal mScarlet-StrepII (O60282 whole entry): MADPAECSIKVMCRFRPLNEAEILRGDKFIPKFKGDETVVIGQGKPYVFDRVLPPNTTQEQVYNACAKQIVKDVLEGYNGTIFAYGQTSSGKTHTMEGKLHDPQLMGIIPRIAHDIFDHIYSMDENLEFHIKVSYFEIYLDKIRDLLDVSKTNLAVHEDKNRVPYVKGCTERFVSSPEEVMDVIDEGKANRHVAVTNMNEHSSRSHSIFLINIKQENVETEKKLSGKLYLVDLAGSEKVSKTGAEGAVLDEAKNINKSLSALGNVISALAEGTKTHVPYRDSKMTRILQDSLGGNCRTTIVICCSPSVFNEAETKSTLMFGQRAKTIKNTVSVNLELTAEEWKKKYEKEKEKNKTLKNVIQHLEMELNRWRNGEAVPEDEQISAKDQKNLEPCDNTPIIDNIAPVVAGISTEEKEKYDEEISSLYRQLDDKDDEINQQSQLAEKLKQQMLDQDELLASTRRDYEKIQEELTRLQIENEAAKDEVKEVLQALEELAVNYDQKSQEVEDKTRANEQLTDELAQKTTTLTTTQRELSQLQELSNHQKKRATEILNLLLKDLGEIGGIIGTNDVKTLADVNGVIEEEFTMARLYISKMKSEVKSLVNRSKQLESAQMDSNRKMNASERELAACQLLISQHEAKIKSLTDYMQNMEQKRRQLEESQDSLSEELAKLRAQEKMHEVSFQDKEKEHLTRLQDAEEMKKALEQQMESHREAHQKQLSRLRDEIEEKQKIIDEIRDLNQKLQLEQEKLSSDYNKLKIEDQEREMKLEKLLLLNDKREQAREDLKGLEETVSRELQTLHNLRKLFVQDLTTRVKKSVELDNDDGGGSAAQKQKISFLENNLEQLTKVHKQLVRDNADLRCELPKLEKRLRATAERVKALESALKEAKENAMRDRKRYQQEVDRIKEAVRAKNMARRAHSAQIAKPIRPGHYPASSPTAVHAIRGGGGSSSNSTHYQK

As to “K420A (human KIF5A aa 1-416, C-terminal mScarlet-StrepII) (from UniProt Q12840 1-416) (domain or fragment)”, the landing rate was 162 /μm/s/μM. With “KIF5B-E178A, C-terminal mScarlet-StrepII (from UniProt P33176 1-963) (natural protein)”, the landing rate is 8.1 /μm/s/μM. Take “full-length human KIF5B, C-terminal mScarlet-StrepII (from UniProt P33176 1-963) (natural protein)”: the landing rate was 0.08 /μm/s/μM.

With “full-length human KIF5C, C-terminal mScarlet-StrepII (from UniProt O60282 1-957) (natural protein)”, the landing rate is 0.1 /μm/s/μM. As to “KIF5B-Δhinge (Δ505-610), C-terminal mScarlet-StrepII (from UniProt P33176 1-963) (natural protein)”, the landing rate was 3.6 /μm/s/μM. The figure for “KIF5B-H129A, C-terminal mScarlet-StrepII (from UniProt P33176 1-963) (natural protein)” is 4.4 /μm/s/μM. The figure for “KIF5B-IAK/AAA, C-terminal mScarlet-StrepII (from UniProt P33176 1-963) (natural protein)” is 4.1 /μm/s/μM; for “KIF5C-KLC1 tetramer (from UniProt O60282;Q07866) (complex)” it is 0.06 /μm/s/μM. “KIF5A-KLC1 tetramer (from UniProt Q12840;Q07866) (complex)”: the landing rate is 0.1 /μm/s/μM. Under “full-length human KIF5A, C-terminal mScarlet-StrepII (from UniProt Q12840 1-1032) (natural protein)” stands 0.69 /μm/s/μM; under “K420C (human KIF5C aa 1-416, C-terminal mScarlet-StrepII) (from UniProt O60282 1-416) (domain or fragment)”, 147 /μm/s/μM. As for “K420B (human KIF5B aa 1-420, C-terminal mScarlet-StrepII) (from UniProt P33176 1-420) (domain or fragment)”, the landing rate was 146 /μm/s/μM. As for “KIF5B-KLC1 tetramer (from UniProt P33176;Q07866) (complex)”, the landing rate is 0.06 /μm/s/μM.
